T1: myc-tagged UFD-2 (^mycUFD-2), Q09349
T1 chain: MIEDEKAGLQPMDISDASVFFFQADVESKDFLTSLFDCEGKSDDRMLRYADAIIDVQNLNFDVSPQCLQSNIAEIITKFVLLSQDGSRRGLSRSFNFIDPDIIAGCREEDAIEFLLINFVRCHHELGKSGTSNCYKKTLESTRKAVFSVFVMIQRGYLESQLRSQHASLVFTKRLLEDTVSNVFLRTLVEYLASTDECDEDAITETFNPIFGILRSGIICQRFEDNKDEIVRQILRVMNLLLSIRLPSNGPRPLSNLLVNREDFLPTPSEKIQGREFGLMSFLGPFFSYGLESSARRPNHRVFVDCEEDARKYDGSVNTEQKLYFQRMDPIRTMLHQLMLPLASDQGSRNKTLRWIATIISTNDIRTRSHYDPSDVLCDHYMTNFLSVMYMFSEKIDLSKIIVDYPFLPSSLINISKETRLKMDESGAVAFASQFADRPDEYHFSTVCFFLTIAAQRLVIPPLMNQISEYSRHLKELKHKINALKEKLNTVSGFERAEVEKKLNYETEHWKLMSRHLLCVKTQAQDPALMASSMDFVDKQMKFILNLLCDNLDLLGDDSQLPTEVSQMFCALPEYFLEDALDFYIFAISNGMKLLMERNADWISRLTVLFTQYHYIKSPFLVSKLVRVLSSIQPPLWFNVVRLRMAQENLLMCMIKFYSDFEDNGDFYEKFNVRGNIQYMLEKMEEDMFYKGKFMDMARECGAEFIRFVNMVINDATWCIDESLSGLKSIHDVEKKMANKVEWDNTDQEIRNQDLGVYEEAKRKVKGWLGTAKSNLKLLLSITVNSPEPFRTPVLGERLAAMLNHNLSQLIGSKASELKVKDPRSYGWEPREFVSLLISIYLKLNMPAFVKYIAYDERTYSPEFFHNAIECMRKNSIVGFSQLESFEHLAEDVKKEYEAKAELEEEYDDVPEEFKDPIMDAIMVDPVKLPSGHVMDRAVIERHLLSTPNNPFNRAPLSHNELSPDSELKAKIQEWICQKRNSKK


Experiments:
[1] = target: FLAG-tagged UNC-45 (UNC-45^FLAG)
[2] = target: T1, myc-tagged UFD-2 (^mycUFD-2), Q09349

Row | Protein | in vitro ubiquitylation of UNC-45 (with E1 and the E2 LET-70), Western blot [1] | in vitro multiubiquitylation of UNC-45 with both enzymes present, Western blot [2]
1 | myc-tagged CHN-1 (^mycCHN-1) (protein) MSSGAEQHNTNGKKCYMNKRYDDAVDHYSKAIKVNPLPKYYQNRAMCYFQLNNLKMTEEDCKRALELSPNEVKPLYFLGNVFLQSKKYSEAISCLSKALYHNAVITNAPDIENALKRARHQKYEEEESKRIVQDVEFHTYLESLIEKDRQENSENPEELQRADMAKKRLTELTLATQEKRQNREVPEMLCGKITLELMKEPVIVPSGITYDREEIVQHLRRIGHFDPVTRKPLTENEIIPNYALKEVIEKFLDDNPWAKYEPGGMV | the addition of full-length CHN-1 proceeds to efficient ubiquitin conjugation. However, the majority of conjugates appeared to contain only one to three ubiquitin moieties | these enzymes together dramatically stimulated the multiubiquitylation reaction, yielding UNC-45 conjugates with significantly longer chains than those conjugated by CHN-1 or UFD-2 alone
2 | myc-tagged UFD-2 (^mycUFD-2) (protein) MIEDEKAGLQPMDISDASVFFFQADVESKDFLTSLFDCEGKSDDRMLRYADAIIDVQNLNFDVSPQCLQSNIAEIITKFVLLSQDGSRRGLSRSFNFIDPDIIAGCREEDAIEFLLINFVRCHHELGKSGTSNCYKKTLESTRKAVFSVFVMIQRGYLESQLRSQHASLVFTKRLLEDTVSNVFLRTLVEYLASTDECDEDAITETFNPIFGILRSGIICQRFEDNKDEIVRQILRVMNLLLSIRLPSNGPRPLSNLLVNREDFLPTPSEKIQGREFGLMSFLGPFFSYGLESSARRPNHRVFVDCEEDARKYDGSVNTEQKLYFQRMDPIRTMLHQLMLPLASDQGSRNKTLRWIATIISTNDIRTRSHYDPSDVLCDHYMTNFLSVMYMFSEKIDLSKIIVDYPFLPSSLINISKETRLKMDESGAVAFASQFADRPDEYHFSTVCFFLTIAAQRLVIPPLMNQISEYSRHLKELKHKINALKEKLNTVSGFERAEVEKKLNYETEHWKLMSRHLLCVKTQAQDPALMASSMDFVDKQMKFILNLLCDNLDLLGDDSQLPTEVSQMFCALPEYFLEDALDFYIFAISNGMKLLMERNADWISRLTVLFTQYHYIKSPFLVSKLVRVLSSIQPPLWFNVVRLRMAQENLLMCMIKFYSDFEDNGDFYEKFNVRGNIQYMLEKMEEDMFYKGKFMDMARECGAEFIRFVNMVINDATWCIDESLSGLKSIHDVEKKMANKVEWDNTDQEIRNQDLGVYEEAKRKVKGWLGTAKSNLKLLLSITVNSPEPFRTPVLGERLAAMLNHNLSQLIGSKASELKVKDPRSYGWEPREFVSLLISIYLKLNMPAFVKYIAYDERTYSPEFFHNAIECMRKNSIVGFSQLESFEHLAEDVKKEYEAKAELEEEYDDVPEEFKDPIMDAIMVDPVKLPSGHVMDRAVIERHLLSTPNNPFNRAPLSHNELSPDSELKAKIQEWICQKRNSKK | addition of one to three ubiquitins to the substrate protein UNC-45 | –
